Molecular target: Methanol dehydrogenase (MDH) of Bacillus brevis S1 strain (NCIMB 12524) (Bacillus brevis S1 strain (NCIMB 12524))
Test: cell-based or functional assay

Substance: Amd (Activator of methanol dehydrogenase), YqkG gene product of Bacillus subtilis 168 strain (from UniProt P54570 1-185)
- NADH producing rate (increase of absorbance at 340 nm after methanol addition) in cell extract, against the pHY300PLK vector control: 5 times
